This passage reports protein production results from a protein production outcome set (Wang et al. 2014).

A short description of this series: label from the status in PepcDB records.
For the sequence “MLRIFSAKNEVDSKYIFMLAFMLALFSSGVPPEIVILHLSREDSFEPYTKVFKKIRNLVSGYRYKFSSAITYSIKNLNIRFLKEFLIRLSQAVTFGDDMIEFLSREIDFTLSEYNAYSARLIESMNNFLTIYATLNSSLTFLVADITILSLIYSGGTTLIIQLTILSLALLGNLTLVMYLLYRPENYIRYNVIDKFVLTFTISLSIIFSVIYTSYIVLMGTGIVLLGIGLRYRLYENKINRIERHFLLFIRYFSRNYAIVSNLKESLMAVLRGDLGDVRPLIRRSLNRLNFGIDKEKIFRLIGDESGSILVSMLSKVLYETISMGGNAMIIGEILSKIGDSVLNIRSRKEQNGRAFETSIYALQTASAGVSAALISIVGMLNNIFSTQNVSTVFSFSEVNIDIISRIFLIILLILSFANGIAITLAYGKSLYVSLYFIGILIILSSISYHIVLILTGNIFKELASPSGLLQTT”, the protein production entry was “failed”.

As to “MTDGEAVSAAAGPGAEGPPGPVGHWAPGSHILWRYRENGGPHVHIARPVTVVRDDADLLAVWLAPGTECVKPVLADGTPVHLEPLATRYTKPRTVQRDQWFGTGVLKLARPGEAWSVWLFWDPGWRFKNWYVNLERPLTRWEGGVDSEDHFLDISVHPDRTWHWRDEDEFAQALRDGLMDPASAGRVRRAGRSAVAEIRAWGSPFADGWEHWRPDPAWPVPSLPGDWDRTPAHVSS”, the protein production result was “not failed”.

With “PKIAGIDLGTTYSSIGIYHAVTGETIILPDDLGKKSVPSVVAFLPNGTVLIGTRATEQQEHNPKRTIYDAKRFIGRNFEKNNKDFLSDQKRYPFKINLDSEGKAFFEIPLDSGTKNVYPEEIGSLIIGYLKSAAAKHLGVTLGQVVISCPAEFNEKQRNFTAKAAEIAEMEVRRVISEPTAAALAYGLHKKQGVENVVVVDLGGGTLDVSVLWLQGGVFVTQAMAGNNRLGGQDFNDRVQKHLISKIAEKFGKTIDNKEDIQQIRMEVEKGKIRLTNVPSTTISLNLKTVGKWNYELTRDEFETLNGDLLKAIELPITAALADANLDTADVDEIVLVGGSTQVPAVRKIVGRFFKKSANYGVDPELAVVTGASVQAGVIGGGWPLQVAAMELPAKRRKRHFFTEEQKENEKDRTISEL”, the protein production entry is recorded as “not failed”.

For the sequence “MTIAVLGATGMVGSRVITEAGARGHRVLALSRKPASEDPNVTLIAADANDPSAVREALAGVASNRAADAVVLTVRTHPVDQEFLIGATRTVLDIAAQLGIRVLVVGGAGALRSPDDHDLLVADNPTYVPAEWKTTAAAGIAQLRACQAHADADWVYLSPPALLEPGERTGRYRRGTDTLLTSADGRSWISAEDLAVAVVDELETPGRERLITVAHRDEPPSA”, the protein production result is listed as “failed”.

On to “MESGNVVNTQPELSGIIDGSKSYMYEQLWKLCAGPLCDIPKLGEKVYYFPQGHIELVEASTREELNELQPICDFPSKLQCRVIAIQLKVENNSDETYAEITLMPDTTQVVIPTQNQNQFRPLVNSFTKVLTASDTSVHGGFSVPKKHAIECLPPLDMSQPLPTQEILAIDLHGNQWRFRHIYRGTAQRHLLTIGWNAFTTSKKLVEGDVIVFVRGETGELRVGIRRAGHQQGNIPSSIVSIESMRHGIIASAKHAFDNQCMFIVVYKPRSSQFIVSYDKFLDVVNNKFNVGSRFTMRFEGDDFSERRSFGTIIGVSDFSPHWKCSEWRSLEVQWDEFASFPRPNQVSPWDIEHLTPWSNVSRSSFLKNKRSREVNEIGSSSSHLLPPTLTQGQEIGQQSMATPMNISLRYRDITEDAMTPSRLLMSYPVQPMAKLNYNNVVTPIEENITTNAVASFRLFGVSLATPSVIKDPVEQIGLEISRLTQEKKFGQSQILRSPTEIQSKQFSSTRTCTKVQMQGVTIGRAVDLSVLNGYDQLILELEKLFDLKGQLQARNQWEIAFTNNEEDKMLVGEDPWPEFCNMVKKIFIYSKEEVKNLKSRKSLSS”, for which the protein production entry is given as “failed”.

For the sequence “MTSSFTDYCKFFNRILSEVQETQEQAIIKGAHLVSEAVMNGGRFYVFGSGHSHMIAEEIYNRAGGLALVTAILPPELMLHERPNKSTYLERIEGLSKSYLKLHQVTNKDVIMIISNSGRNTVPVEMAIESRNIGAKVIAMTSMKHSQKVTSRHKSGKKLYEYADVVLDNGAPVGDAGFQIANSEIYSGATSDSIGCFLAQALIVETLHLLVQQGFEPPVFKSSNVDGADLYNDKIFNEYVKW”, the protein production result is “not failed”.

As to “MKKLSGIIVLLLAGAALYLALKTSPIDPLAWDAPAAPQMTGVLEPNDTLMKAELLGQGQLHGPEDTAVDSQGRVYAGLADGRVVRLDASGKVETFVDTGGRPLGMDFDAAGNLILADAWKGLLRIDPQGKVETLATEADSVPFAFTDDLDIASDGRIYFSDASSKFHQPDYILDLLEARPHGRLLRYDPSTGKTEVLLKDLYFANGVALSANEDFVLVNETYRYRITRYWLKGEKAGQHEVFIDNLPGLPDNLQGDRKGTFWVALPTPRKADADFLHRHPWLKAQLAKLPRMFLPKPTAYGLVIAIDEQGRIVRSLHDTSGHHLRMITSAKPVGDQLYFGSLENDRIGRLAIPLEHHHHHH”, the protein production result is listed as “not failed”.

Regarding “MIFMHPKTLEILKMFEEINKIPRRSKNEEKLALWLMEWAKNHNFEAKTDALNNVLIKVPPTPGYENSPAIVLQGHMDMVCEKCRDSGHDFSKDPIICIYEGDWLRGDGTSIGADNGIALAIGLVLAESGIKGEIEHPPLELLFTVDEETGLTGASGLEEDFFEGRILLNLDSEDEGIFILGCAGGQNSRIFLPLQWESFDYGKGSGFGLFRISAEGLEGGHSGVEIHRQRANGIQLLARMLSALKEKVGKENLRLVFFSGGSVHNAIPNYAEAFIVLSRNNEKQAEDFVSGLQKSFRGEYAVSDPEITLQLKEVENGIIFEASGGKITRKEVPSDRVFSVETEEKLYGVLLGMPHGVHRVSDTIPGLVETSNNLATVRTGEKEVRIVSSQRSSVMSRLAEVTEKVETVAKLAGARVEHECGYPAWEPDLQSGLLMKCRHAYSGTFGKEPEIKVVHAGLECGVIGSKCECIEMISFGPTIKDPHSPAERVYIPSIEKVWVFLENLMKSYRLEHHHHHH”, the protein production result is recorded as “not failed”.

For the sequence “MKLIRLIASPILMYVLAGVYALVLAIATFVENSSGPAVAREYFYYAPWFILLQLLQAVNLLAMFLQGGYFKRISKGSLIFHGALVFIWLGAAVTHYAGVTGIMHIREGETVDRMMRDEGAGMGNASLPFSVTLDDFRLKRYPGSHSPMSYESDLVIKKENEAPLQATVRMNKVIEVDGYRLFQSSFDPDEQGTVLSVSYDRPGMQITYIGYFLLFAGFVLTLFSKKSRFGRLRRELGEMKKNAPFCLLLFLGLSGALGTQASYAQETLSSSQLPCIPAPHARKFGSLVLLNPNGRLEPVNSYTSAILRKLYGADKLNSINSDQFFLNLLAFPDEWGGYPFIKVDNKDILQRFGRDGKYIAWQDVFDADGNYVLTDEVNAIYAKSASERKRMDSDLLKLDESVNIVYRIMQHQLLPLFPDENDVQGKWYSAGDEQTVFHDKDSLFVSKIMDWYIYELGNGVRTNNWKEADKIVDMMHIFQQAKSKTPAIDNQRVKAELLYNQLNLFFWCRLAYLILGGILLFIACGEIIADFKWGSRLSSILIVLLIAAFLAHTTGVLLRWYISERAPWANAYESMICTSWLLVGGGLLFARRFRILPALAGLLGGIMLFVAGLNHLNPEITPLVPVLQSYWLMSHVAIIMIGYVFFALCALTGLFNLILMNLLSATNRVKLLFRIREFTLLNEMAMILGLFFMTAGTFLGAIWANVSWGRYWGWDPKETWALISIVVYALVLHIRFIPLLKGKTTWCYNLLSVVSILSIIMTWFGVNYYLSGLHSYGKTEGGDLLLWIWGAGLCVVLALALFARRRLKKYS”, the protein production entry is on record as “failed”.

Consider “MKFGKRHYRPQVDQMDCGVASLAMVFGYYGSYYFLAHLRELAKTTMDGTTALGLVKVAEEIGFETRAIKADMTLFDLPDLTFPFVAHVLKEGKLLHYYVVTGQDKDSIHIADPDPGVKLTKLPRERFEEEWTGVTLFMAPSPD”, for which the protein production entry is “not failed”.

“MMERFDISAQDLKSFGFTTLFCIVIALATMSIWGGLFGEHLAISFSYGYSAFFSAQWIARRWPELSKRLVNILSLSCAVVLGTSSAYLWLRHYPGFDEFSAYKPIIFLGFIFSAVCFLYFYSHEQKILAQGALEAARRRQSEQEKALLLSQLKQLQSQMEPHFLFNTLANINALIAVEPYKAQLMLEKLTELLRGTMRLRRTNTGDLREEMQLIDAYLGIQKIRLGERLEYTLPELSELGTLGMPPMLIQPLVENAVSHGIEPKAEGGTIRVRIEVADDWFELSVEDNGMGLSDTPKGNGIALQNVRDRLSGLFGHEGLLTVAQNCSGGVTATLRIRLHHLQGLQRSFYDYSQARSPQS”: the protein production result is “failed”.

Consider “GLGGFTRTRNKGKSNVIDMIQKYIESKGMPIENWDITVGYCTNLEEAEKYRDDVEAQLGVKLLERREDFKTRISIISGCHTGPYALGIACIPKYTTIRL”, for which the protein production result is reported as “not failed”.

As for “MTLVRMTEKLLSPLHTRPWPERWLTRVLGAALASAAYLLCLPWDLNNRAPSPGAVEETTPVTGVGVVALAVILLALAAYFGHRDSLGWPVLLVAVPPAALLYVSLRTHPGPPDGFAGVWPLVWGFFTLLIGVGVLVAAAVAREFRADLVDEELSLAHRR”, the protein production result is given as “failed”.

On to “MDHLPMPKFGPLAGLRVVFSGIEIAGPFAGQMFAEWGAEVIWIENVAWADTIRVQPNYPQLSRRNLHALSLNIFKDEGREAFLKLMETTDIFIEASKGPAFARRGITDEVLWQHNPKLVIAHLSGFGQYGTEEYTNLPAYNTIAQAFSGYLIQNGDVDQPMPAFPYTADYFSGLTATTAALAALHKVRETGKGESIDIAMYEVMLRMGQYFMMDYFNGGEMCPRMSKGKDPYYAGCGLYKCADGYIVMELVGITQIEECFKDIGLAHLLGTPEIPEGTQLIHRIECPYGPLVEEKLDAWLATHTIAEVKERFAELNIACAKVLTVPELESNPQYVARESITQWQTMDGRTCKGPNIMPKFKNNPGQIWRGMPSHGMDTAAILKNIGYSENDIQELVSKGLAKVED”, for which the protein production entry is “not failed”.

“MRRSRRAALAACLILAIAATPGAVLAQTVDELYASAVKARQARHFDEAVDLLRRALALKPDNADALVQLGFAELGRNDLAAARDAFSKALSLAPTYQDASFGLAEIEFRSGNLDAALPLAESVARAQPGNTDAAALVENIRKAMQAAGGEARKASVAAPRAKPRPDPVAGLMEQGRRLRTAGKLPEAEKVYRRALGLAPKNTDILVALGLIVGSSQRFDEAGHFFDRALAIKPGLLDARIGKIRMAIWQGDVPSARALVDDVLASSPDNVEALDLDAKVALLEADYTRAGQSFQRVLAIDPRNAEALVGIGDVRRAQGDDDAARQAYREALAIEPGSSDIEQRLAVPPPRKWRLDLGTEVSDLTNGLSDWTDSSAGLAYRLSPRTTISGRTRVATRFGRTDVQIEGRIDEAFSPAFSAYAFAAATPDADFLARYSIGAGASLQVMAAAKAFGPLSLNIDTRYDNFTNTNVTSVSPWVQGYIFDGRLGLSARWVHAADDIGTRADGYVLRVDLAMAQRFNLFGGYADAPEISDGTLVPTRTVFGGISWDVNDPLTLRASIAHEQRPTFDRSIFGLGLTARF”: the protein production entry was “failed”.

For “MNDRKILVAYFSCSGVTKAVAEKLAAITGADLYEIKPEVPYTEADLDWNDKKSRSSVEMRDALSRPAISGTLFHPEKYEVLFVGFPVWWYIAPTIINTFLESYDFAGKIVVPFATSGGSGIGNCEKNLHKAYPDIVWKDGKLLNGQITRDLVTEWFEKIRL”, the protein production result is recorded as “not failed”.

Take “MDTPLGSVLYITLGCAKNEVDTDRMRSLLTAAGYEEAFDPQDADIAIVNTCSFLASATSESIETTLELANEVQDGVRSCPIVMCGCVPSRYGDDLPDELPEVAAFVKADEEDGIVAVIDGVLGVEREIAAYIPQVKRTVEGAVAYVKISDGCNRFCSFCMIPYIRGRYHSRNSESIISEVRDLVAGGVREIVLIGQDTGIWGTDFADEDVADGSPRNLAQLLRAVAEAVRPHNVWVRVLYLQPEGMTDELIDTIRDTPEVLPYIDIPVQHCDARILKAMRRSGSRQELEDLFRDLRERIPGIVIRSTAMVGFPTETDDEFRDLIDFMDTVGFDYTSVFAYSREEGSLAAKMEGQVDEEVKLERAQEAMDLAESLGFAATAAHVGERAQVIVDGIEETEDGAELIGHAWFQAPDSDGAVHLDASEASVGDILTVEFTDSFCYELIGHVVE”: the protein production result was “failed”.
